Test [1] deals with Mycobacterium tuberculosis RNA polymerase core (M. tuberculosis) (UniProt P9WGZ1). Nature of the test: SEC. For orientation: Size exclusion chromatography separates by hydrodynamic size, large species first.
Test [2] concerns the target Mycobacterium tuberculosis RNA polymerase holoenzyme with the σ^B subunit (M. tuberculosis) (UniProt P9WGZ1). Nature of the test: SEC.
For test [3] the target is unchanged. The test can be described thus: cryo-EM structure.
The target is the same in test [4]. Nature of the test: negative stain EM.

Several values for one entry are separate records, joined by “and”; a condition that tells them apart may be missing. Equal entries are not always repeated.

The stoichiometry N is a count of units in the complex or per binding partner. “Mycobacterium tuberculosis RNA polymerase core (from UniProt P9WGZ1;P9WGY9;P9WGY7;P9WGY5) (complex)” yielded a stoichiometry N in test [1] of 2.

With “Mycobacterium tuberculosis RNA polymerase holoenzyme with the σ^B subunit, P9WGZ1;P9WGY9;P9WGY7;P9WGY5;P9WGI5”, the stoichiometry N in test [2] was 8. In test [3], the percent of oligomer particles that are octamers turned out to be 80%; the percent of oligomer particles that are tetramers stood at 20%; the stoichiometry N is 8 and 4. In test [4], this substance registered an RNAP concentration from which octamers form of 0.1 µM, a percent of molecules in oligomers after 24 h at 4 °C of 86% and a stoichiometry N of 8.

The record behind these values is PMC9886945.
